Assay results reported in patent US11419921B2, “Methods of treating neurological disorders” (EnClear Therapies, Inc., priority 2018, dated 2022).

Test system: (GR)10
Experiment: Cleavage of (GR)10 by enzymes in solution (PBS with CaCl2 and MgCl2), LC/MS of GR repeats
Format: biochemical
Conditions: (GR)10 50 μM
Procedure: • (GR)10 dipeptide (also (GR)8, (GR)6, (GR)4, (GR)2) were synthetized by solid-phase synthesis by CanPeptide; All peptides are uncapped and supplied lyophilized with TFA as counter ions. Purity was always above 95%. • Buffer: PBS buffer containing CaCl2 and MgCl2. • Stock solution of enzyme (e.g., 10 mg/mL) (prepared per manufacturer instructions) in PBS. Activators added as necessary. • Working solution of protein of the desired concentration (e.g., 100 μg/mL) prepared immediately before use by diluting the stock solution (e.g., 5 μL of 10 mg/mL stock solution) in PBS buffer (e.g., in 495 μL of PBS). Exemplary Procedure Using 50 μM Concentrations of (GR)10
25 μL of a 100 μM solution of (GR)10 was added to each well of a 96-well plate. 25 μL of a solution of enzyme (two times the desired final enzyme concentration) was added, and the plates were incubated at room temperature. At the specified time points (5 minutes, 10 minutes, 30 minutes, 60 minutes, and 180 minutes) 2.5 μL of a 10% TFA solution were added to stop the reaction. For the time 0 min well, the TFA was added to the well before addition of the enzyme. After last time point, all samples were further diluted with 150 μL of dilution solution. The quenched reaction mixtures were analyzed by LC/MS to determine the concentration of GR repeats of different lengths.
The chromatography and mass spectrometry conditions utilized are shown in Table 2 and Table 3, respectively.

B1: Proteinase K: protease that cleaves peptide bonds adjacent to the carboxylic group of aliphatic and aromatic amino acids (protein)
chain: AAQTNAPWGLARISSTSPGTSTYYYDESAGQGSCVYVIDTGIEASHPEFEGRAQMVKTYYYSSRDGNGHGTHCAGTVGSRTYGVAKKTQLFGVKVLDDNGSGQYSTIIAGMDFVASDKNNRNCPKGVVASLSLGGGYSSSVNSAAARLQSSGVMVAVAAGNNNADARNYSPASEPSVCTVGASDRYDRRSSFSNYGSVLDIFGPGTSILSTWIGGSTRSISGTSMATPHVAGLAAYLMTLGKTTAASACRYIADTANKGDLSNIPFGTVNLLAYNNYQA
(GR)1 concentration (enzyme 0.25 μg/mL, 0 min): BLQ
(GR)2 concentration (enzyme 0.25 μg/mL, 0 min): BLQ
(GR)4 concentration (enzyme 0.25 μg/mL, 0 min): BLQ
(GR)6 concentration (enzyme 0.25 μg/mL, 0 min): BLQ
(GR)8 concentration (enzyme 0.25 μg/mL, 0 min): 0.3 µM
(GR)10 concentration (enzyme 0.25 μg/mL, 0 min): 44.9 µM
(GR)1 concentration (enzyme 0.25 μg/mL, 2.5 min): BLQ
(GR)2 concentration (enzyme 0.25 μg/mL, 2.5 min): BLQ
(GR)4 concentration (enzyme 0.25 μg/mL, 2.5 min): BLQ
(GR)6 concentration (enzyme 0.25 μg/mL, 2.5 min): BLQ
(GR)8 concentration (enzyme 0.25 μg/mL, 2.5 min): BLQ
(GR)10 concentration (enzyme 0.25 μg/mL, 2.5 min): 55.8 µM
(GR)1 concentration (enzyme 0.25 μg/mL, 5 min): 0.1 µM
(GR)2 concentration (enzyme 0.25 μg/mL, 5 min): BLQ
(GR)4 concentration (enzyme 0.25 μg/mL, 5 min): BLQ
(GR)6 concentration (enzyme 0.25 μg/mL, 5 min): BLQ
(GR)8 concentration (enzyme 0.25 μg/mL, 5 min): BLQ
(GR)10 concentration (enzyme 0.25 μg/mL, 5 min): 54.4 µM
(GR)1 concentration (enzyme 0.25 μg/mL, 10 min): 0.2 µM
(GR)2 concentration (enzyme 0.25 μg/mL, 10 min): BLQ
(GR)4 concentration (enzyme 0.25 μg/mL, 10 min): BLQ
(GR)6 concentration (enzyme 0.25 μg/mL, 10 min): BLQ
(GR)8 concentration (enzyme 0.25 μg/mL, 10 min): BLQ
(GR)10 concentration (enzyme 0.25 μg/mL, 10 min): 50.3 µM
(GR)1 concentration (enzyme 0.25 μg/mL, 30 min): 0.6 µM
(GR)2 concentration (enzyme 0.25 μg/mL, 30 min): 0.2 µM
(GR)4 concentration (enzyme 0.25 μg/mL, 30 min): 0.1 µM
(GR)6 concentration (enzyme 0.25 μg/mL, 30 min): BLQ
(GR)8 concentration (enzyme 0.25 μg/mL, 30 min): 0.3 µM
(GR)10 concentration (enzyme 0.25 μg/mL, 30 min): 55.1 µM
(GR)1 concentration (enzyme 0.25 μg/mL, 60 min): 1.0 µM
(GR)2 concentration (enzyme 0.25 μg/mL, 60 min): 0.3 µM
(GR)4 concentration (enzyme 0.25 μg/mL, 60 min): BLQ
(GR)6 concentration (enzyme 0.25 μg/mL, 60 min): BLQ
(GR)8 concentration (enzyme 0.25 μg/mL, 60 min): 0.3 µM
(GR)10 concentration (enzyme 0.25 μg/mL, 60 min): 56.3 µM
(GR)1 concentration (enzyme 10 μg/mL, 0 min): BLQ
(GR)2 concentration (enzyme 10 μg/mL, 0 min): BLQ
(GR)4 concentration (enzyme 10 μg/mL, 0 min): BLQ
(GR)6 concentration (enzyme 10 μg/mL, 0 min): BLQ
(GR)8 concentration (enzyme 10 μg/mL, 0 min): BLQ
(GR)10 concentration (enzyme 10 μg/mL, 0 min): 49.4 µM
(GR)1 concentration (enzyme 10 μg/mL, 2.5 min): 3.0 µM
(GR)2 concentration (enzyme 10 μg/mL, 2.5 min): 0.5 µM
(GR)4 concentration (enzyme 10 μg/mL, 2.5 min): 0.6 µM
(GR)6 concentration (enzyme 10 μg/mL, 2.5 min): 0.5 µM
(GR)8 concentration (enzyme 10 μg/mL, 2.5 min): 0.6 µM
(GR)10 concentration (enzyme 10 μg/mL, 2.5 min): 55.4 µM
(GR)1 concentration (enzyme 10 μg/mL, 5 min): 5.3 µM
(GR)2 concentration (enzyme 10 μg/mL, 5 min): 0.8 µM
(GR)4 concentration (enzyme 10 μg/mL, 5 min): 1.3 µM
(GR)6 concentration (enzyme 10 μg/mL, 5 min): 0.8 µM
(GR)8 concentration (enzyme 10 μg/mL, 5 min): 1.3 µM
(GR)10 concentration (enzyme 10 μg/mL, 5 min): 48.8 µM
(GR)1 concentration (enzyme 10 μg/mL, 10 min): 11.9 µM
(GR)2 concentration (enzyme 10 μg/mL, 10 min): 1.4 µM
(GR)4 concentration (enzyme 10 μg/mL, 10 min): 2.9 µM
(GR)6 concentration (enzyme 10 μg/mL, 10 min): 2.2 µM
(GR)8 concentration (enzyme 10 μg/mL, 10 min): 2.6 µM
(GR)10 concentration (enzyme 10 μg/mL, 10 min): 44.1 µM
(GR)1 concentration (enzyme 10 μg/mL, 30 min): 44.8 µM
(GR)2 concentration (enzyme 10 μg/mL, 30 min): 5.7 µM
(GR)4 concentration (enzyme 10 μg/mL, 30 min): 9.5 µM
(GR)6 concentration (enzyme 10 μg/mL, 30 min): 5.2 µM
(GR)8 concentration (enzyme 10 μg/mL, 30 min): 3.5 µM
(GR)10 concentration (enzyme 10 μg/mL, 30 min): 16.6 µM
(GR)1 concentration (enzyme 10 μg/mL, 60 min): 64.1 µM
(GR)2 concentration (enzyme 10 μg/mL, 60 min): 10.1 µM
(GR)4 concentration (enzyme 10 μg/mL, 60 min): 13.6 µM
(GR)6 concentration (enzyme 10 μg/mL, 60 min): 6.6 µM
(GR)8 concentration (enzyme 10 μg/mL, 60 min): 5.7 µM
(GR)10 concentration (enzyme 10 μg/mL, 60 min): 10.6 µM
